From the RNAGym collection of RNA variant scans (doi:10.1021/acssynbio.7b00057)

B1: Pistol ribozyme (parent)
chain: GGGUCGUUGUUCCAUAAUCGCGUGGAUAUGGCACGCAAGUUUCUACCGGGCACCGUAAAUGUCCGACUGGAGCCGUUCGGGCGGCUAUAAACAGACCUCAGGCCCGAAGCGUGGCGGCACCUGCCGCCGGUGGUAAAAAAGAUCGGAAGAGCACACGUCU

Variants of: B1
Assay: aptazyme ON/OFF ratio, guanine; higher = stronger switching; co-transcriptional cleavage with and without guanine

Variant | aptazyme ON/OFF ratio
U7A U8G G9U U10G C12A C13G | 1.14
U7A U8G G9U U10G C12A C13U | 1.15
U7A U8G U10C U11G C12G C13G | 1.35
U7A U8G U10C U11G C12G C13A | 1.19
U7A U8G U10A U11G C12A C13A | 1.28
U7A U8G U10A U11G C12A C13G | 1.21
U7A U8G U10A U11G C12A C13U | 1.08
U7A U8G U10A C12U C13G | 1.25
U7A U8G U10A C12U C13A | 1.32
U7A U8G U10A C12U C13U | 1.42
U7A U8G G9U U11G C13A | 1.28
U7A U8G G9U U11G C13U | 1.45
U7A U8G G9U U11G C13G | 1.4
U7A U8G G9U U10A U11C | 1.06
U7A U8G G9U U10A U11G | 2.03
U7A U8G G9U U10C U11A C12G | 1.61
U7A U8G G9U U10C U11A C12A | 1.63
U7A U8G G9U U10C U11A C12U | 1.72
U7A U8G G9U U11C C12G C13G | 1.32
U7A U8G G9U U11C C12G C13A | 1.16
U7A U8G G9U U11C C12G C13U | 1.27
U7A U8G G9U U10C U11C C12U C13A | 1.14
U7A U8G G9U U10C U11C C12U C13G | 1.2
U7A U8G G9U U10C U11C C12U C13U | 1.23

Variant | aptazyme ON/OFF ratio
U7A U8G G9U U10C U11G C12U | 1.21
U7A U8G G9U U10C U11G C12G | 1.45
U7A U8G G9U U10C U11G C12A | 1.5
U7A U8G G9U U10A U11G C12G | 1.19
U7A U8G G9U U10A U11G C12A | 1.06
U7A U8G G9U U10A U11G C12U | 1.17
U7A U8G U10A C13U | 1.12
U7A U8G U10A C13A | 1.09
U7A U8G U10A C13G | 1.26
U7A U8G U10C C12U C13G | 1.4
U7A U8G U10C C12U C13U | 1.51
U7A U8G U10C C12U C13A | 1.55
U7A U8G G9U U10A U11C C12U | 1.04
U7A U8G G9U U10A U11C C12A | 1.39
U7A U8G G9U U10A U11C C12G | 1.43
U7A U8G G9U U10A U11C C13G | 1.09
U7A U8G G9U U10A U11C C13U | 0.998
U7A U8G G9U U10A U11C C13A | 1.02
U7A U8G U10A C12A C13U | 1.48
U7A U8G U10A C12A C13A | 1.17
U7A U8G U10A C12A C13G | 1.23
U7A U8G G9U U10A U11C C12G C13A | 1.14
U7A U8G G9U U10A U11C C12G C13U | 1.4
U7A U8G G9U U10A U11C C12G C13G | 1.27

Variant | aptazyme ON/OFF ratio
U7A U8G G9U U10G U11A C12A C13G | 1.39
U7A U8G G9U U10G U11A C12A C13U | 1.48
U7A U8G G9U U10G U11A C12A C13A | 1.16
U7A U8G G9U U10C U11C C12G C13A | 1.2
U7A U8G G9U U10C U11C C12G C13U | 1.46
U7A U8G G9U U10C U11C C12G C13G | 1.11
U7A U8G U10C U11A C13U | 1.21
U7A U8G U10C U11A C13G | 1.21
U7A U8G U10C U11A C13A | 1.45
U7A U8G G9U U10G U11C C12U C13G | 1.47
U7A U8G G9U U10G U11C C12U C13A | 1.1
U7A U8G G9U U10G U11C C12U C13U | 1.05
U7A U8G G9U U10C U11A C12A C13G | 1.37
U7A U8G G9U U10C U11A C12A C13A | 1.26
U7A U8G G9U U10C U11A C12A C13U | 1.47
U7A U8G G9U U11A C12A C13G | 1.38
U7A U8G G9U U11A C12A C13U | 1.25
U7A U8G G9U U11A C12A C13A | 1.53
U7A U8G G9U U10G C12A | 1.21
U7A U8G G9U U10G C12G | 1.15
U7A U8G G9U U10G C12U | 1.28
U7A U8G G9U U10C U11A C13G | 1.33
U7A U8G G9U U10C U11A C13A | 1.44
U7A U8G G9U U10C U11A C13U | 1.33

Variant | aptazyme ON/OFF ratio
U7A U8G G9U U10G U11A C12G C13A | 1.13
U7A U8G G9U U10G U11A C12G C13G | 1.38
U7A U8G G9U U10G U11A C12G C13U | 1.02
U7A U8G G9U U10G U11G C13U | 1.24
U7A U8G G9U U10G U11G C13G | 1.19
U7A U8G G9U U10G U11G C13A | 1.16
U7A U8G U10C U11C | 2.69
U7A U8G U10C U11A | 1.95
U7A U8G U10C U11G | 1.29
U7A U8G G9U U10C U11A C12U C13G | 1.32
U7A U8G G9U U10C U11A C12U C13U | 1.36
U7A U8G G9U U10C U11A C12U C13A | 1.41
U7A U8G U10C U11C C12G C13U | 1.19
U7A U8G U10C U11C C12G C13G | 1.26
U7A U8G U10C U11C C12G C13A | 1.07
U7A U8G U10C U11A C12A C13A | 1.27
U7A U8G U10C U11A C12A C13U | 1.37
U7A U8G U10C U11A C12A C13G | 1.53
U7A U8G U10A U11A C13A | 1.28
U7A U8G U10A U11A C13G | 1.38
U7A U8G U10A U11A C13U | 1.1
U7A U8G U10C U11A C12U | 1.27
U7A U8G U10C U11A C12A | 1.5
U7A U8G U10C U11A C12G | 1.48

Variant | aptazyme ON/OFF ratio
U7A U8G U10C U11G C12G | 1.33
U7A U8G U10C U11G C12A | 1.43
U7A U8G G9U U10A U11A C12U C13G | 1.24
U7A U8G G9U U10A U11A C12U C13U | 1.2
U7A U8G G9U U10A U11A C12U C13A | 1.26
U7A U8G G9U U10G U11G C12A C13G | 1.13
U7A U8G G9U U10G U11G C12A C13A | 1.12
U7A U8G G9U U10G U11G C12A C13U | 1.21
U7A U8G G9U U11G C12A C13U | 1.2
U7A U8G G9U U11G C12A C13G | 1.27
U7A U8G G9U U11G C12A C13A | 1.26
U7A U8G G9U U11C | 1.45
U7A U8G G9U U11G | 1.94
U7A U8G G9U U11A | 2.05
U7A U8G U10C U11C C13A | 1.06
U7A U8G U10C U11C C13U | 1.12
U7A U8G U10C U11C C13G | 1.13
U7A U8G G9U U11A C12U C13U | 1.07
U7A U8G G9U U11A C12U C13A | 1.43
U7A U8G G9U U11A C12U C13G | 1.26
U7A U8G G9U U11G C12G | 1.56
U7A U8G G9U U11G C12A | 1.38
U7A U8G G9U U11G C12U | 1.26
U7A U8G U10C C12G C13A | 1.19

Variant | aptazyme ON/OFF ratio
U7A U8G U10C C12G C13U | 1.28
U7A U8G U10C C12G C13G | 1.05
U7A U8G G9U U10C C12U C13G | 1.54
U7A U8G G9U U10C C12U C13A | 1.34
U7A U8G G9U U10C C12U C13U | 1.31
U7A U8G G9U U10G U11G C12G C13U | 0.953
U7A U8G G9U U10G U11G C12G C13G | 1.24
U7A U8G G9U U10G U11G C12G C13A | 1.16
U7A U8G G9U U10A U11G C13U | 1.37
U7A U8G G9U U10A U11G C13G | 1.12
U7A U8G G9U U10A U11G C13A | 1.14
U7A U8G U10A C12G | 1.22
U7A U8G U10A C12A | 1.23
U7A U8G U10A C12U | 1.17
U7A U8G U10A U11G C12G | 1.32
U7A U8G U10A U11G C12A | 1.43
U7A U8G U10A U11G C12U | 1.12
U7A U8G U10C C12A C13U | 1.51
U7A U8G U10C C12A C13A | 1.41
U7A U8G U10C C12A C13G | 1.25
U7A U8G U10C U11C C12A C13A | 1.61
U7A U8G U10C U11C C12A C13G | 1.3
U7A U8G U10C U11C C12A C13U | 1.49
U7A U8G G9U U10G U11G C12U C13U | 1.21

Variant | aptazyme ON/OFF ratio
U7A U8G G9U U10G U11G C12U C13A | 1.38
U7A U8G G9U U10G U11G C12U C13G | 1.3
U7A U8G G9U U10A U11G C12U C13A | 1.08
U7A U8G G9U U10A U11G C12U C13G | 1.16
U7A U8G G9U U10A U11G C12U C13U | 1.18
U7A U8G G9U U10G U11G C12G | 1.35
U7A U8G G9U U10G U11G C12A | 1.38
U7A U8G G9U U10G U11G C12U | 1.36
U7A U8G G9U U10A U11C C12A C13A | 1.25
U7A U8G G9U U10A U11C C12A C13U | 1.37
U7A U8G G9U U10A U11C C12A C13G | 1.2
U7A U8G G9U U10C C12G C13A | 1.39
U7A U8G G9U U10C C12G C13U | 1.68
U7A U8G G9U U10C C12G C13G | 1.16
U7A U8G U10A U11G C12U C13G | 1.21
U7A U8G U10A U11G C12U C13A | 1.15
U7A U8G U10A U11G C12U C13U | 1.32
U7A U8G U10C C12A | 1.33
U7A U8G U10C C12G | 1.12
U7A U8G U10C C12U | 1.5
U7A U8G G9U U10C U11C C12A C13A | 1.21
U7A U8G G9U U10C U11C C12A C13G | 1.32
U7A U8G G9U U10C U11C C12A C13U | 1.2
